Tested on: Escherichia coli TOP10
Experiment: shrunken log2 fold change of peptide-encoding DNA abundance (4.5 h post-induction vs induction); higher = less antimicrobial activity (less host growth inhibition)
Details: time post-induction: 4.5 h; library: site-saturation at positions 5, 18, 19, 20
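Also: peptides expressed intracellularly from a pBAD plasmid library in pooled LB shake-flask culture, induced with 0.3% L-arabinose, DNA abundance read by NGS, three biological replicates, DESeq2 with apeglm shrinkage.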

## RRIRSRPPRLPRPRPRPSPMPRP
  shrunken log2 fold change: -0.132

## RRIRHRPPRLPRPRPRPKANPRP
  shrunken log2 fold change: 0.174

## RRIRPRPPRLPRPRPRPAYWPRP
  shrunken log2 fold change: 0.212

## RRIRVRPPRLPRPRPRPKRQPRP
  shrunken log2 fold change: 0.0464

## RRIRGRPPRLPRPRPRPALCPRP
  shrunken log2 fold change: 0.925

## RRIRKRPPRLPRPRPRPACRPRP
  shrunken log2 fold change: 0.789

## RRIRHRPPRLPRPRPRPLSGPRP
  shrunken log2 fold change: -0.35

## RRIRYRPPRLPRPRPRPWWMPRP
  shrunken log2 fold change: -0.452

## RRIRGRPPRLPRPRPRPAPEPRP
  shrunken log2 fold change: 1.34

## RRIRPRPPRLPRPRPRPSVTPRP
  shrunken log2 fold change: -0.385

## RRIRRRPPRLPRPRPRPHTWPRP
  shrunken log2 fold change: 0.0615

## RRIRYRPPRLPRPRPRPQWEPRP
  shrunken log2 fold change: -0.0193

## RRIRSRPPRLPRPRPRPFNTPRP
  shrunken log2 fold change: -0.257

## RRIRSRPPRLPRPRPRPYLYPRP
  shrunken log2 fold change: -0.065

## RRIRMRPPRLPRPRPRPWCAPRP
  shrunken log2 fold change: 0.204

## RRIRWRPPRLPRPRPRPKMAPRP
  shrunken log2 fold change: 0.859

## RRIRLRPPRLPRPRPRPAAFPRP
  shrunken log2 fold change: 0.184

## RRIRCRPPRLPRPRPRPGMVPRP
  shrunken log2 fold change: 0.0377

## RRIRWRPPRLPRPRPRPPVRPRP
  shrunken log2 fold change: 0.108

## RRIRERPPRLPRPRPRPMCDPRP
  shrunken log2 fold change: -0.212

## RRIRYRPPRLPRPRPRPILHPRP
  shrunken log2 fold change: -0.141

## RRIRVRPPRLPRPRPRPYQQPRP
  shrunken log2 fold change: -0.323

## RRIRSRPPRLPRPRPRPASMPRP
  shrunken log2 fold change: 0.0141

## RRIRKRPPRLPRPRPRPWALPRP
  shrunken log2 fold change: -0.0102

## RRIRFRPPRLPRPRPRPMQSPRP
  shrunken log2 fold change: -0.208

## RRIRQRPPRLPRPRPRPGHPPRP
  shrunken log2 fold change: 0.0393

## RRIRIRPPRLPRPRPRPWMRPRP
  shrunken log2 fold change: -0.37

## RRIRGRPPRLPRPRPRPADSPRP
  shrunken log2 fold change: 0.283

## RRIRTRPPRLPRPRPRPDFPPRP
  shrunken log2 fold change: -0.178

## RRIRRRPPRLPRPRPRPQCQPRP
  shrunken log2 fold change: 0.0393

## RRIRSRPPRLPRPRPRPRRCPRP
  shrunken log2 fold change: 0.359

## RRIRKRPPRLPRPRPRPYSSPRP
  shrunken log2 fold change: -0.239

## RRIRERPPRLPRPRPRPQIQPRP
  shrunken log2 fold change: 0.136

## RRIRCRPPRLPRPRPRPSNGPRP
  shrunken log2 fold change: -0.113

## RRIRPRPPRLPRPRPRPRQQPRP
  shrunken log2 fold change: 0.13

## RRIRWRPPRLPRPRPRPAQPPRP
  shrunken log2 fold change: 0.236

## RRIRKRPPRLPRPRPRPAHAPRP
  shrunken log2 fold change: 1.11

## RRIRHRPPRLPRPRPRPYICPRP
  shrunken log2 fold change: -0.153

## RRIRERPPRLPRPRPRPDCVPRP
  shrunken log2 fold change: -0.191

## RRIRPRPPRLPRPRPRPPFRPRP
  shrunken log2 fold change: 0.529

## RRIRGRPPRLPRPRPRPFDEPRP
  shrunken log2 fold change: 0.294

## RRIRVRPPRLPRPRPRPGEFPRP
  shrunken log2 fold change: 0.119

## RRIRSRPPRLPRPRPRPISWPRP
  shrunken log2 fold change: -0.186

## RRIRQRPPRLPRPRPRPYWYPRP
  shrunken log2 fold change: -0.0759

## RRIRPRPPRLPRPRPRPMRSPRP
  shrunken log2 fold change: 0.478

## RRIRPRPPRLPRPRPRPNHGPRP
  shrunken log2 fold change: -0.0975

## RRIRPRPPRLPRPRPRPNCYPRP
  shrunken log2 fold change: -0.344

## RRIRHRPPRLPRPRPRPGFKPRP
  shrunken log2 fold change: -0.206

## RRIRHRPPRLPRPRPRPNWEPRP
  shrunken log2 fold change: -0.0833

## RRIRWRPPRLPRPRPRPCLDPRP
  shrunken log2 fold change: -0.0586

## RRIRQRPPRLPRPRPRPCMYPRP
  shrunken log2 fold change: -0.166

## RRIRCRPPRLPRPRPRPCAQPRP
  shrunken log2 fold change: 0.101

## RRIRKRPPRLPRPRPRPRLIPRP
  shrunken log2 fold change: 0.234

## RRIRARPPRLPRPRPRPLHVPRP
  shrunken log2 fold change: 0.0439

## RRIRLRPPRLPRPRPRPNSPPRP
  shrunken log2 fold change: -0.418

## RRIRPRPPRLPRPRPRPVRVPRP
  shrunken log2 fold change: 0.502

## RRIRNRPPRLPRPRPRPLMFPRP
  shrunken log2 fold change: -0.947

## RRIRVRPPRLPRPRPRPIYDPRP
  shrunken log2 fold change: -0.576

## RRIRMRPPRLPRPRPRPRDYPRP
  shrunken log2 fold change: -0.164

## RRIRQRPPRLPRPRPRPDCYPRP
  shrunken log2 fold change: -0.304

## RRIRRRPPRLPRPRPRPQEGPRP
  shrunken log2 fold change: -0.0768

## RRIRNRPPRLPRPRPRPRMNPRP
  shrunken log2 fold change: 0.00678

## RRIRPRPPRLPRPRPRPDDRPRP
  shrunken log2 fold change: 0.162

## RRIRMRPPRLPRPRPRPYCKPRP
  shrunken log2 fold change: -1.02

## RRIRNRPPRLPRPRPRPDVKPRP
  shrunken log2 fold change: -0.412

## RRIRSRPPRLPRPRPRPCIYPRP
  shrunken log2 fold change: -0.847

## RRIRMRPPRLPRPRPRPPQMPRP
  shrunken log2 fold change: 0.594

## RRIRFRPPRLPRPRPRPVHNPRP
  shrunken log2 fold change: -0.104

## RRIRMRPPRLPRPRPRPWCHPRP
  shrunken log2 fold change: 0.0355

## RRIRSRPPRLPRPRPRPMSIPRP
  shrunken log2 fold change: -0.214

## RRIRARPPRLPRPRPRPNHIPRP
  shrunken log2 fold change: -0.8

## RRIRKRPPRLPRPRPRPSPVPRP
  shrunken log2 fold change: 0.191

## RRIRNRPPRLPRPRPRPPEMPRP
  shrunken log2 fold change: 0.0979

## RRIRDRPPRLPRPRPRPPCYPRP
  shrunken log2 fold change: -0.0706

## RRIRMRPPRLPRPRPRPVCMPRP
  shrunken log2 fold change: 0.392

## RRIRSRPPRLPRPRPRPCYCPRP
  shrunken log2 fold change: -0.215

## RRIRRRPPRLPRPRPRPIRMPRP
  shrunken log2 fold change: 0.302

## RRIRNRPPRLPRPRPRPKVWPRP
  shrunken log2 fold change: 0.68

## RRIRRRPPRLPRPRPRPMQCPRP
  shrunken log2 fold change: 0.00703

## RRIRIRPPRLPRPRPRPVPRPRP
  shrunken log2 fold change: 0.0562

## RRIRMRPPRLPRPRPRPWTVPRP
  shrunken log2 fold change: -0.248

## RRIRYRPPRLPRPRPRPKMNPRP
  shrunken log2 fold change: -0.616

## RRIRSRPPRLPRPRPRPYFCPRP
  shrunken log2 fold change: -0.354

## RRIRWRPPRLPRPRPRPTWAPRP
  shrunken log2 fold change: 0.369

## RRIRPRPPRLPRPRPRPAPVPRP
  shrunken log2 fold change: 0.409

## RRIRQRPPRLPRPRPRPKHIPRP
  shrunken log2 fold change: -0.456

## RRIRGRPPRLPRPRPRPKPGPRP
  shrunken log2 fold change: 1.07

## RRIRNRPPRLPRPRPRPQTQPRP
  shrunken log2 fold change: 0.153

## RRIRNRPPRLPRPRPRPGLPPRP
  shrunken log2 fold change: 0.028

## RRIRNRPPRLPRPRPRPVKKPRP
  shrunken log2 fold change: -0.0236

## RRIRCRPPRLPRPRPRPVVSPRP
  shrunken log2 fold change: -0.229

## RRIRWRPPRLPRPRPRPLNYPRP
  shrunken log2 fold change: -0.546

## RRIRCRPPRLPRPRPRPKETPRP
  shrunken log2 fold change: -0.0766

## RRIRHRPPRLPRPRPRPSCTPRP
  shrunken log2 fold change: -0.263

## RRIRFRPPRLPRPRPRPKPMPRP
  shrunken log2 fold change: 0.521

## RRIRYRPPRLPRPRPRPQENPRP
  shrunken log2 fold change: -0.00441

## RRIRNRPPRLPRPRPRPEFIPRP
  shrunken log2 fold change: -0.304

## RRIRDRPPRLPRPRPRPPRRPRP
  shrunken log2 fold change: 0.635

## RRIRYRPPRLPRPRPRPFGLPRP
  shrunken log2 fold change: -0.282

## RRIRRRPPRLPRPRPRPDMTPRP
  shrunken log2 fold change: 0.0544

## RRIRYRPPRLPRPRPRPPYQPRP
  shrunken log2 fold change: -0.369

## RRIRKRPPRLPRPRPRPVTEPRP
  shrunken log2 fold change: 0.42

## RRIRPRPPRLPRPRPRPISTPRP
  shrunken log2 fold change: -0.324

## RRIRNRPPRLPRPRPRPEKYPRP
  shrunken log2 fold change: -0.805

## RRIRNRPPRLPRPRPRPAERPRP
  shrunken log2 fold change: -0.117

## RRIRRRPPRLPRPRPRPDQSPRP
  shrunken log2 fold change: 0.0941

## RRIRVRPPRLPRPRPRPSGNPRP
  shrunken log2 fold change: -0.225

## RRIRVRPPRLPRPRPRPNHNPRP
  shrunken log2 fold change: -0.638

## RRIRNRPPRLPRPRPRPNAVPRP
  shrunken log2 fold change: 0.266

Reference: the supplement of paper PMC9112550, “Optimization of the antimicrobial peptide Bac7 by deep mutational scanning” (BMC Biology, 2022)
